Measured values reported in patent US20170088624A1 (Janssen / Centocor, published 2017).

T1: Macaca fascicularis (cyno) CD40 (cCD40) on cells (Macaca fascicularis (cynomolgus), UniProt P25942 21-277 (human entry))
T1 construct: CD40 on cyno mature DCs
T1 chain: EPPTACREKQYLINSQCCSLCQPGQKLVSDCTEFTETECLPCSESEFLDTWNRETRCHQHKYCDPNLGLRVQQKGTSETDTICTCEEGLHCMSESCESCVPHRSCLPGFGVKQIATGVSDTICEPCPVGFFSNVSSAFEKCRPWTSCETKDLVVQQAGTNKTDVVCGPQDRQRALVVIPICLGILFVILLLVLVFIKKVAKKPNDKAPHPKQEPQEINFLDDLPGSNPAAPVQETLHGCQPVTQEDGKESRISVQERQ

T2: cyno CD40 (SPR analyte) (Macaca fascicularis (cynomolgus), UniProt P25942 21-193 (human entry), limits assumed)
T2 construct: also called cCD40-ECD
T2 chain: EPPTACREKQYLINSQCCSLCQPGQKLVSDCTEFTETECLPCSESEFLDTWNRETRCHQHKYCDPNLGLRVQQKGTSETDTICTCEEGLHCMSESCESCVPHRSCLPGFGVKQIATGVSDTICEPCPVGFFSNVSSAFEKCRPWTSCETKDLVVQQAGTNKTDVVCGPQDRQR


Key:
[1] = molecular target: T1, Macaca fascicularis (cyno) CD40 (cCD40) …; assay: flow cytometry, cyno mature DCs
Protocol: (§1) Human monocytes were isolated from either frozen/fresh PBMC using CD14 negative isolation kit per manufacturer's protocol (MACS Miltenyi). Cyno monocytes were isolated from fresh PBMC using CD14 positive isolation kit per manufacturer's protocol (MACS Miltenyi). To generate DCs, monocytes were cultured for 5 days in complete media RPMI (Invitrogen) in the presence of 100 ng/ml human GM-CSF and human IL-4 (Peprotech) and media was replenished every 2 days. On day 5, DCs were stimulated with 100 ng/ml LPS (Sigma) for 24 hours. Cells were then stained with each of the tested CD40 antibody at different concentration in flow cytometry buffer (PBS+1% FBS; BD Bioscience) in 100 μl volume for 30 minutes on ice followed with two washes with flow buffer. Cells were then stained for additional 30 minutes on ice with APC-conjugated anti human IgG (Jackson ImmunoResearch) at the recommended dilution 1:100 and washed twice with flow buffer. Cells were analyzed for percent positive and Mean Fluorescence Intensity (MFI) to determine the antibody binding using Fortessa (BD Bioscience).
(§2) The experiments were conducted using assays described above. 20 antibodies were characterized further based on their binding to human DCs, cyno DCs, Raji cells and HEK-Blue™ CD40L cells.

[2] = molecular target: T3, human CD40 (SPR analyte) (human, UniProt P25942 21-193); assay: SPR ProteOn XPR36, mAb captured by anti-human IgG Fc, CD40 as analyte, 25 C
T3 construct: also called huCD40-ECD
Protocol: (§3) Affinity measurements were performed using Surface Plasmon Resonance (SPR) using a ProteOn XPR36 system (BioRad). […] Approximately 5000 RU (response units) of mAbs were immobilized. The kinetic experiments were performed at 25° C. in running buffer (DPBS+0.01% P20+100 μg/ml BSA). To perform kinetic experiments, 200 RU of mAbs were captured followed by injections of analytes (human or cyno CD40) at 5 concentrations (in a 4-fold serial dilution). The association phase was monitored for 3 minutes at 50 μL/min, then followed by 15 minutes of buffer flow (dissociation phase). The chip surface was regenerated with two 18 second pulses of 100 mM H₃PO₄ (Sigma, Cat#7961) at 100 μL/min.
(§4) The collected data were processed using ProteOn Manager software. First, the data was corrected for background using inter-spots. Then, double reference subtraction of the data was performed by using the buffer injection for analyte injections. The kinetic analysis of the data was performed using a Langmuir 1:1 binding model. The result for each mAb was reported in the format of Ka (On-rate), Kd (Off-rate) and KD (equilibrium dissociation constant).
(§5) The parameters reported in this table were obtained from a 1:1 Langmuir binding model for all samples. Affinity, KD=kd/ka.

[3] = molecular target: T4, Full length human CD40 (huCD40) on cells (human, UniProt P25942 21-277); assay: flow cytometry, HEK-Blue CD40L cells
T4 construct: CD40 on human mature DCs, human B cells, Raji cells and HEK-Blue CD40L cells (stably expressing human CD40); also called TNFRSF5

[4] = molecular target: T4, Full length human CD40 (huCD40) on cells; assay: cell-based or functional assay
[5] = molecular target: T4, Full length human CD40 (huCD40) on cells; assay: flow cytometry, human B cells
Target sequence in this assay (P25942 21-277): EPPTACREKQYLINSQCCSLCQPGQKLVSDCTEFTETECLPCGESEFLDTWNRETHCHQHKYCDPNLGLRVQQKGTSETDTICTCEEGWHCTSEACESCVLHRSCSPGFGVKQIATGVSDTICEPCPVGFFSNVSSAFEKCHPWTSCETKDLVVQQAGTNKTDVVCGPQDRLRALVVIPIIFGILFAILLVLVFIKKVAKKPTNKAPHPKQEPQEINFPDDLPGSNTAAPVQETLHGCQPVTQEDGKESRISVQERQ

[6] = molecular target: T4, Full length human CD40 (huCD40) on cells; assay: flow cytometry, human DCs
Target sequence in this assay (P25942 21-277): as above

[7] = molecular target: T4, Full length human CD40 (huCD40) on cells; assay: cell-based or functional assay; remark: listed apart in the source
[8] = molecular target: T2, cyno CD40 (SPR analyte); assay: SPR ProteOn XPR36, mAb captured by anti-human IgG Fc, cyno CD40 as analyte, 25 C
Protocol: as §3, §4

[9] = molecular target: T4, Full length human CD40 (huCD40) on cells; assay: cell-based or functional assay; remark: listed apart in the source
Target sequence in this assay (P25942 21-277): as above

[10] = molecular target: T4, Full length human CD40 (huCD40) on cells; assay: flow cytometry, HEK-Blue CD40L cells; remark: listed apart in the source
Target sequence in this assay (P25942 21-277): as above

[11] = molecular target: T4, Full length human CD40 (huCD40) on cells; assay: flow cytometry, human mature DCs
Protocol: as §1, §2

[12] = molecular target: T4, Full length human CD40 (huCD40) on cells; assay: flow cytometry, Raji cells
[13] = molecular target: T2, cyno CD40 (SPR analyte); assay: SPR ProteOn XPR36, mAb captured, cyno CD40 as analyte, 25 C; did not fit well to 1:1 model
Protocol: as §3, §4, §5

Binder	EC50 [1] [µg/mL]	Kd [2] [nM]	koff [2] [s⁻¹]	kon [2] [M⁻¹ s⁻¹]	EC50 [3] [µg/mL]	B cells EC50, CD23 surface expression, with cross-linker [4] [µg/mL]	B cells EC50, CD80 surface expression, with cross-linker [4] [µg/mL]	B cells EC50, CD83 surface expression, with cross-linker [4] [µg/mL]	B cells EC50, CD86 surface expression, with cross-linker [4] [µg/mL]	B cells EC50, HLA-DR surface expression, with cross-linker [4] [µg/mL]	EC50 [5] [µg/mL]	EC50 [6] [µg/mL]	DC EC50, CD80 surface expression, with cross-linker [7] [µg/mL]	DC EC50, CD83 surface expression, with cross-linker [7] [µg/mL]	DC EC50, CD86 surface expression, with cross-linker [7] [µg/mL]	DC EC50, HLA-DR surface expression, with cross-linker [7] [µg/mL]	EC50, Human B cells (CD83) [9] [µg/mL]	EC50, Human DC (HLA-DR) [9] [µg/mL]	EC50, agonistic activity on HEK-Blue™ CD40L cells (NF-κB/SEAP) [9] [µg/mL]	EC50 [10] [µg/mL]	other results
C40M18 (antibody, human IgG1, lambda, V domains shown, Full-length IgG1/lambda; from OmniRat (OMT); VH C40H48, VL C40L64) VH: EVQLVESGGGLVQPGGSLRLSCAASGFTFSSYAMSWVRQAPGKGLEWVSIINNNVGRTYYADSVKGRFTISRDNSKNTLYLQMNSLRAEDTAVYYCAKEGGDYYYYGMDVWGQGTTVTVSS VL: SYELTQPPSVSVSPGQTASITCSGDKLGDKYVCWYQQKPGQSPVVVIYQDSKRPSGIPERFSGSNSGNTATLTISGTQAMDEAYYYCQAWVSSTVVFGGGTKLTVLG	0.0389	0.151	0.000162	1.07e+06	0.126	0.306	0.0481	0.0624	0.00873	0.0239	0.11	0.267	0.0523	0.0478	0.0302	0.0105	0.0226	0.166	0.0696	0.15	Kd [8]: 0.0712 nM; koff [8]: 9.41e-05 s⁻¹; kon [8]: 1.32e+06 M⁻¹ s⁻¹; EC50 [11]: 0.352 µg/mL; EC50 [12]: 0.073 µg/mL
C40M103 (antibody, human IgG1, lambda, V domains shown, Variant of C40M18 (VH C40H48, VL C40L69; LCDR1 cysteine mutated); cloned as IgG1) VH: EVQLVESGGGLVQPGGSLRLSCAASGFTFSSYAMSWVRQAPGKGLEWVSIINNNVGRTYYADSVKGRFTISRDNSKNTLYLQMNSLRAEDTAVYYCAKEGGDYYYYGMDVWGQGTTVTVSS VL: SYELTQPPSVSVSPGQTASITCSGDKLGDKYVSWYQQKPGQSPVLVIYQDSKRPSGIPERFSGSNSGNTATLTISGTQAMDEADYYCQAWVSSTVVFGGGTKLTVLG											0.075	0.143					0.00479	0.388	0.00274	0.112	
C40M104 (antibody, human IgG1, lambda, V domains shown, Variant of C40M18 (VH C40H48, VL C40L68; LCDR1 cysteine mutated); cloned as IgG1) VH: EVQLVESGGGLVQPGGSLRLSCAASGFTFSSYAMSWVRQAPGKGLEWVSIINNNVGRTYYADSVKGRFTISRDNSKNTLYLQMNSLRAEDTAVYYCAKEGGDYYYYGMDVWGQGTTVTVSS VL: SYELTQPPSVSVSPGQTASITCSGDKLGDKYVSWYQQKPGQSPVVVIYQDSKRPSGIPERFSGSNSGNTATLTISGTQAMDEAYYYCQAWVSSTVVFGGGTKLTVLG											0.11	0.253					0.0167	0.166	0.0308	0.177	
C40M62 (antibody, human IgG1, kappa, V domains shown, Full-length IgG1/kappa; from phage display) VH: QVQLVQSGAEVKKPGSSVKVSCKASGGTFSSYAISWVRQAPGQGLEWMGGIIPIFGTANYAQKFQGRVTITADESTSTAYMELSSLRSEDTAVYYCARVANAAYFRSGLDYWGQGTLVTVSS VL: not shown	0.0716	13.1	0.00247	189000	0.228	0.0125	0.00154	0.00126	0.00113	0.000356			0.602	0.218	0.381	0.0604					Kd [13]: 2.64 nM; koff [13]: 0.000908 s⁻¹; kon [13]: 343000 M⁻¹ s⁻¹; EC50 [11]: 0.329 µg/mL; EC50 [12]: 0.0994 µg/mL
